Results on two molecules are retold here after PMC12079668 (2025).

Common to all, as to test: ITC
On the technique in general: Isothermal titration calorimetry measures the heat released or taken up as one component is titrated into another.

In assay [1] the target is T1, mouse Cavin1 HR1 domain 5Q mutant (mouse, UniProt O54724 45-155, Lys115 to glutamine | Arg117 to glutamine | Lys118 to glutamine | Lys124 to …).
T1 sequence: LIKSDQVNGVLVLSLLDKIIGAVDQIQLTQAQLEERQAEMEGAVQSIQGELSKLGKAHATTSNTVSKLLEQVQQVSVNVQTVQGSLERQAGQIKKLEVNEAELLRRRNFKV

For assay [2], the target named is T2, N-terminal fragment of mouse Cavin1 HR1 domain (residues 45–103) (mouse, UniProt O54724 45-103).
T2 chain: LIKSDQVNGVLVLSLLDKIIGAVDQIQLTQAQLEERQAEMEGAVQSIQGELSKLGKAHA

For assay [3], the target named is T3, mouse Cavin1 HR1 domain (residues 45–155), His-Ub-tagged (mouse, UniProt O54724 45-155).
T3 chain: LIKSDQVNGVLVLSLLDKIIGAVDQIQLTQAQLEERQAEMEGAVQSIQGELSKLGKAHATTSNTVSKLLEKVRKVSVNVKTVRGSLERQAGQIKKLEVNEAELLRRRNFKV

For assay [4], the target named is T4, full-length mouse Cavin1, His-MBP-tagged (mouse, UniProt O54724 1-392).
T4 chain: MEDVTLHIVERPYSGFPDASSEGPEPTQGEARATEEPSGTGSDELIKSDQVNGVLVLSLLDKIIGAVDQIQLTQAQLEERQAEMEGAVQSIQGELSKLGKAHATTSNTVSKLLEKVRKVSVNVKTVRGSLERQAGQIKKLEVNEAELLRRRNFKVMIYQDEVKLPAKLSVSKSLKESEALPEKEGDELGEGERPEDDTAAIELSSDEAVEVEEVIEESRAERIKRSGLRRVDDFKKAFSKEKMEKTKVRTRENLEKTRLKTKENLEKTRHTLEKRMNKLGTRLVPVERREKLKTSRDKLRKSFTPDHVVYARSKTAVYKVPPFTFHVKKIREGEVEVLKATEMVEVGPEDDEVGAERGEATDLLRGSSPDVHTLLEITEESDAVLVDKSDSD

B1: nanobody NbA12 (VHH)
VHH: QVQLQESGGGLVQAGGSLRLSCAASGFTFDDYAIGWFRQAPGKEREGVSCITSSDGSTYYADSVKGRFTISSDNAKNTVYLQMNSLKPEDTAVYYCAAESWPPLCHYSGMDYWGKGTQVTVSS
On to B1, for which the Kd in assay [1] came out at 143 nM; in assay [2], 555 nM; in assay [3], 500 nM; in assay [4], 8880 nM.

B2: nanobody NbB7 (VHH)
VHH: QVQLQESGGGLVQAGGSLRLSCAVSGIRVNVNAMYWYRQAPGKQRELVAIITTFGSTNYADSAKGRFTISRDNTKNTVYLQMDNLKPEDTAVYYCNAPQFTDRYWGQGTQVTVSS
B2: the results for the Kd in assay [2] and in assay [4] were 451 nM and 1730 nM, respectively.

For orientation: Kd means the constant that tells how readily two partners part at equilibrium. A high value points to a looser complex.
